Paper PMC9482650, “Quantitative fragmentomics allow affinity mapping of interactomes” (Nature Communications, 2022)

Experiments:
Assay in all cases: holdup assay
Parameters in all cases: key: below the threshold = too weak to quantify, mostly under pKd 3.1 to 4
Conditions in all cases: plain residues with an end cap or a label only (N-terminal biotin on a linker: ado-ado)
MAGI2_5, Q86UL8 = molecular target: MAGI2_5, Q86UL8
MAGI2_6, Q86UL8 = molecular target: MAGI2_6, Q86UL8
GRIP1_5, Q9Y3R0 = molecular target: T1, GRIP1_5, Q9Y3R0
T1 sequence (Q9Y3R0 568-668, limits assumed, looked up): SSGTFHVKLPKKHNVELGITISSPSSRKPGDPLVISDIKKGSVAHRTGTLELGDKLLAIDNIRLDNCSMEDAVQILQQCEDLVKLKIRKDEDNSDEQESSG

HTRA2, O43464 = molecular target: HTRA2, O43464
Sequence of HTRA2, O43464 (O43464 355-458): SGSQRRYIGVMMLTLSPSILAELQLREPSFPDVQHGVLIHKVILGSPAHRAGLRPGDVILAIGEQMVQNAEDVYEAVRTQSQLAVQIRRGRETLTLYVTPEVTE

CARD11, Q9BXL7 = molecular target: T2, CARD11, Q9BXL7
T2 sequence (Q9BXL7 662-765, limits assumed, looked up): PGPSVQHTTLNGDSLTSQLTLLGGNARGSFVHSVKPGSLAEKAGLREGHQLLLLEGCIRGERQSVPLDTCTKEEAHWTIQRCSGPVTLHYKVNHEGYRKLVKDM

MAGI3_2, Q5TCQ9 = molecular target: MAGI3_2, Q5TCQ9
Sequence of MAGI3_2, Q5TCQ9 (Q5TCQ9 398-503): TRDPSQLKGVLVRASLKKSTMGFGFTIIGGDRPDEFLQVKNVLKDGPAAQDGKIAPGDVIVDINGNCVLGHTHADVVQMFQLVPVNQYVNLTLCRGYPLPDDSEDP

FRMPD2_2, Q68DX3 = molecular target: FRMPD2_2, Q68DX3
Sequence of FRMPD2_2, Q68DX3 (Q68DX3 944-1038): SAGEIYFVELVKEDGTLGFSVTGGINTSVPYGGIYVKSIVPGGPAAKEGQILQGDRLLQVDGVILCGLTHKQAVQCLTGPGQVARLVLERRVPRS

SCRIB_3, Q14160 = molecular target: SCRIB_3, Q14160
Sequence of SCRIB_3, Q14160 (Q14160 999-1103): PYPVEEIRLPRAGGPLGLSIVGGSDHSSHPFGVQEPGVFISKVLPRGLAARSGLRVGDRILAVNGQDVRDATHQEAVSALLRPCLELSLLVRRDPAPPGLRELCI

GRIP1_3, Q9Y3R0 = molecular target: T3, GRIP1_3, Q9Y3R0
T3 sequence (Q9Y3R0 247-346, limits assumed, looked up): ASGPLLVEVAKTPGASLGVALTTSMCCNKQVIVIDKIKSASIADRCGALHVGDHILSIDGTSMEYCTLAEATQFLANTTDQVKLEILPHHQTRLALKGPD

GORASP1, Q9BQQ3 = molecular target: GORASP1, Q9BQQ3
Sequence of GORASP1, Q9BQQ3 (Q9BQQ3 1-208): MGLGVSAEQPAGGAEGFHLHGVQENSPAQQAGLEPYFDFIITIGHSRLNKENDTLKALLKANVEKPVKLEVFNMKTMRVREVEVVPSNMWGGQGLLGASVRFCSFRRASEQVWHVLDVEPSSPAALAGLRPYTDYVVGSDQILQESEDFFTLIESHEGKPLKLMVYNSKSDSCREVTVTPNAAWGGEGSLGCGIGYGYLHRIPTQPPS

DLG1_2, Q12959 = molecular target: DLG1_2, Q12959
Sequence of DLG1_2, Q12959 (Q12959 314-412): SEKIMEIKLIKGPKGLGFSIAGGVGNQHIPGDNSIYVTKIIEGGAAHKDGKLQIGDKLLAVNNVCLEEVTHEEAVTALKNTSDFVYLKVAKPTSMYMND

Inadl_1, Q8NI35 = molecular target: Inadl_1, Q8NI35
Sequence of Inadl_1, Q8NI35 (Q8NI35 113-229): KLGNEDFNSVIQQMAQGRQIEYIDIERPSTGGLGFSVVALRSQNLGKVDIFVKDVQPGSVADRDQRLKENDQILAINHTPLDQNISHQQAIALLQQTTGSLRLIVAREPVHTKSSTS

DLG1_3, Q12959 = molecular target: DLG1_3, Q12959
Sequence of DLG1_3, Q12959 (Q12959 457-571): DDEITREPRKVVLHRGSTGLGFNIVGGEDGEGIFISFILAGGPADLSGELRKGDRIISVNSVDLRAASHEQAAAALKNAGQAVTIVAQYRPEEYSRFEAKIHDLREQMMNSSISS

NHERF3_1, Q5T2W1 = molecular target: T4, NHERF3_1, Q5T2W1
T4 sequence (Q5T2W1 4-100, limits assumed, looked up): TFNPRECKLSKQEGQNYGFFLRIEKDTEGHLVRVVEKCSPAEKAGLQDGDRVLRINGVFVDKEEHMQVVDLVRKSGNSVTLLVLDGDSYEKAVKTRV

MAGI2_2, Q86UL8 = molecular target: MAGI2_2, Q86UL8
Sequence of MAGI2_2, Q86UL8 (Q86UL8 410-522): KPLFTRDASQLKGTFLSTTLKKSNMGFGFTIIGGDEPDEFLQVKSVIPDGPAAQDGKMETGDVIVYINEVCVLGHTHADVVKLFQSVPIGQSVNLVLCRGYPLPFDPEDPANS

MPDZ_10, O75970 = molecular target: T5, MPDZ_10, O75970
T5 sequence (O75970 1624-1722, limits assumed, looked up): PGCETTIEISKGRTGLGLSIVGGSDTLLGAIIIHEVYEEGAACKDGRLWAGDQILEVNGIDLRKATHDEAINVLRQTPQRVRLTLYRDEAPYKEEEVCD

DLG2_3, Q15700 = molecular target: DLG2_3, Q15700
GRIP2_5, Q9C0E4 = molecular target: GRIP2_5, Q9C0E4
Sequence of GRIP2_5, Q9C0E4 (Q9C0E4 544-642): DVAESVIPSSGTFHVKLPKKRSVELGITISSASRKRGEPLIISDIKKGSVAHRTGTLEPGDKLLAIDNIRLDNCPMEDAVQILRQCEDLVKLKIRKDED

LNX2_3, Q8N448 = molecular target: T6, LNX2_3, Q8N448
T6 sequence (Q8N448 463-564, limits assumed, looked up): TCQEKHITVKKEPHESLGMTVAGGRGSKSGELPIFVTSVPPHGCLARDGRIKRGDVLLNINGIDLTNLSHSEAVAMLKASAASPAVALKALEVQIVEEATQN

GRIP2_3, Q9C0E4 = molecular target: GRIP2_3, Q9C0E4
Sequence of GRIP2_3, Q9C0E4 (Q9C0E4 238-339): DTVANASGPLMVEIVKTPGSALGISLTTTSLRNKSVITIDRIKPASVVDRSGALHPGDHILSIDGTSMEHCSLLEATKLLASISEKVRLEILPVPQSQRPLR

ARHGEF11, O15085 = molecular target: T7, ARHGEF11, O15085
T7 sequence (O15085 42-136, limits assumed, looked up): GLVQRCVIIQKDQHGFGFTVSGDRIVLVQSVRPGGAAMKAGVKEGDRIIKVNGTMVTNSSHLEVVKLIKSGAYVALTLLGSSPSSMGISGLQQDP

RADIL, Q96JH8 = molecular target: T8, RADIL, Q96JH8
T8 sequence (Q96JH8 971-1071, limits assumed, looked up): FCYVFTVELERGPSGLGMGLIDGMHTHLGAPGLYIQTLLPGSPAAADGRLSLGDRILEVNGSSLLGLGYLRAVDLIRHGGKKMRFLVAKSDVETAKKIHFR

Inadl_4, Q8NI35 = molecular target: Inadl_4, Q8NI35
Sequence of Inadl_4, Q8NI35 (Q8NI35 547-651): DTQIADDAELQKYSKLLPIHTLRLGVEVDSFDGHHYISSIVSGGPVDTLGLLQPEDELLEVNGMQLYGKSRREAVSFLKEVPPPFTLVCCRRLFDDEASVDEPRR

NHERF4_2, Q86UT5 = molecular target: NHERF4_2, Q86UT5
Sequence of NHERF4_2, Q86UT5 (Q86UT5 220-308): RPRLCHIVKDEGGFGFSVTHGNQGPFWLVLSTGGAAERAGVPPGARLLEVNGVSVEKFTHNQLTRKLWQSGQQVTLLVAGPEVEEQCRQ

SNTA1, Q13424 = molecular target: T9, SNTA1, Q13424
T9 sequence (Q13424 82-180, limits assumed, looked up): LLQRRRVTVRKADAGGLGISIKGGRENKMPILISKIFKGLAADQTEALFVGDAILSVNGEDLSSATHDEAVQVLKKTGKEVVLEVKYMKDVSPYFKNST

PTPN3, P26045 = molecular target: PTPN3, P26045
Sequence of PTPN3, P26045 (P26045 505-587): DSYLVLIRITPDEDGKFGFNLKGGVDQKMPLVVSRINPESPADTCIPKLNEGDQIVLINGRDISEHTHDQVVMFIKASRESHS

DFNB31_3, Q9P202 = molecular target: T10, DFNB31_3, Q9P202
T10 sequence (Q9P202 811-907, limits assumed, looked up): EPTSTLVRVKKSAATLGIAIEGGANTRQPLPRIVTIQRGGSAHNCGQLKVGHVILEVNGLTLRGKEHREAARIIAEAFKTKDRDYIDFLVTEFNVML

Sequence of MAGI2_5, Q86UL8 (Q86UL8 915-1017): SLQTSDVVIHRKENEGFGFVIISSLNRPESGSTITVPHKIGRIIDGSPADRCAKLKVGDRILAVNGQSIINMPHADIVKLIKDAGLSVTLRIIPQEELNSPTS
Sequence of MAGI2_6, Q86UL8 (Q86UL8 1141-1229): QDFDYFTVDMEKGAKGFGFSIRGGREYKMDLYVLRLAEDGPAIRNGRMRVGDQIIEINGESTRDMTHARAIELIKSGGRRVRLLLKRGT

SKSLERATQL [COMMD3, Q9UBI1]
pKd (MAGI2_5, Q86UL8): 4.49
pKd (MAGI2_6, Q86UL8): 3.79
pKd (GRIP1_5, Q9Y3R0): below the threshold
pKd (HTRA2, O43464): below the threshold
pKd (CARD11, Q9BXL7): below the threshold
pKd (MAGI3_2, Q5TCQ9): 3.75
pKd (FRMPD2_2, Q68DX3): 3.65
pKd (SCRIB_3, Q14160): 4.54
pKd (GRIP1_3, Q9Y3R0): below the threshold
pKd (GORASP1, Q9BQQ3): 3.78
pKd (DLG1_2, Q12959): 3.92
pKd (Inadl_1, Q8NI35): below the threshold
pKd (DLG1_3, Q12959): 3.97
pKd (NHERF3_1, Q5T2W1): 5.82
pKd (MAGI2_2, Q86UL8): 3.71
pKd (MPDZ_10, O75970): below the threshold
pKd (DLG2_3, Q15700): 3.71
pKd (GRIP2_5, Q9C0E4): below the threshold
pKd (LNX2_3, Q8N448): below the threshold
pKd (GRIP2_3, Q9C0E4): below the threshold
pKd (ARHGEF11, O15085): 4.57
pKd (RADIL, Q96JH8): 3.63
pKd (Inadl_4, Q8NI35): below the threshold
pKd (NHERF4_2, Q86UT5): below the threshold
pKd (SNTA1, Q13424): 4.06
pKd (PTPN3, P26045): 4.91
pKd (DFNB31_3, Q9P202): 4.25

QELLEYETTV [XKR7, Q5GH72]
pKd (MAGI2_5, Q86UL8): 4.89
pKd (MAGI2_6, Q86UL8): 4.45
pKd (GRIP1_5, Q9Y3R0): below the threshold
pKd (HTRA2, O43464): below the threshold
pKd (CARD11, Q9BXL7): below the threshold
pKd (MAGI3_2, Q5TCQ9): 4.44
pKd (FRMPD2_2, Q68DX3): 4.83
pKd (SCRIB_3, Q14160): 4.81
pKd (GRIP1_3, Q9Y3R0): below the threshold
pKd (GORASP1, Q9BQQ3): 4.23
pKd (DLG1_2, Q12959): 5.14
pKd (Inadl_1, Q8NI35): below the threshold
pKd (DLG1_3, Q12959): 4.09
pKd (NHERF3_1, Q5T2W1): 3.93
pKd (MAGI2_2, Q86UL8): 3.76
pKd (MPDZ_10, O75970): below the threshold
pKd (DLG2_3, Q15700): 3.55
pKd (GRIP2_5, Q9C0E4): 3.48
pKd (LNX2_3, Q8N448): below the threshold
pKd (GRIP2_3, Q9C0E4): below the threshold
pKd (ARHGEF11, O15085): 4.56
pKd (RADIL, Q96JH8): 4.73
pKd (Inadl_4, Q8NI35): below the threshold
pKd (NHERF4_2, Q86UT5): below the threshold
pKd (SNTA1, Q13424): 4.98
pKd (PTPN3, P26045): 4.85
pKd (DFNB31_3, Q9P202): below the threshold

WRSKRTDTLL [RAMP3, O60896]
pKd (MAGI2_5, Q86UL8): below the threshold
pKd (MAGI2_6, Q86UL8): 3.69
pKd (GRIP1_5, Q9Y3R0): below the threshold
pKd (HTRA2, O43464): below the threshold
pKd (CARD11, Q9BXL7): below the threshold
pKd (MAGI3_2, Q5TCQ9): 4.37
pKd (FRMPD2_2, Q68DX3): below the threshold
pKd (SCRIB_3, Q14160): 3.98
pKd (GRIP1_3, Q9Y3R0): below the threshold
pKd (GORASP1, Q9BQQ3): 3.78
pKd (DLG1_2, Q12959): 4.29
pKd (Inadl_1, Q8NI35): below the threshold
pKd (DLG1_3, Q12959): below the threshold
pKd (NHERF3_1, Q5T2W1): 5.16
pKd (MAGI2_2, Q86UL8): 4.23
pKd (MPDZ_10, O75970): below the threshold
pKd (DLG2_3, Q15700): below the threshold
pKd (GRIP2_5, Q9C0E4): below the threshold
pKd (LNX2_3, Q8N448): below the threshold
pKd (GRIP2_3, Q9C0E4): below the threshold
pKd (ARHGEF11, O15085): 3.47
pKd (RADIL, Q96JH8): 3.57
pKd (Inadl_4, Q8NI35): below the threshold
pKd (NHERF4_2, Q86UT5): below the threshold
pKd (SNTA1, Q13424): 3.59
pKd (PTPN3, P26045): 4.22
pKd (DFNB31_3, Q9P202): below the threshold

VISERNSTTV [C3AR1, Q16581]
pKd (MAGI2_5, Q86UL8): 3.73
pKd (MAGI2_6, Q86UL8): 3.49
pKd (GRIP1_5, Q9Y3R0): below the threshold
pKd (HTRA2, O43464): below the threshold
pKd (CARD11, Q9BXL7): below the threshold
pKd (MAGI3_2, Q5TCQ9): 4.83
pKd (FRMPD2_2, Q68DX3): below the threshold
pKd (SCRIB_3, Q14160): 3.62
pKd (GRIP1_3, Q9Y3R0): below the threshold
pKd (GORASP1, Q9BQQ3): below the threshold
pKd (DLG1_2, Q12959): 4.72
pKd (Inadl_1, Q8NI35): below the threshold
pKd (DLG1_3, Q12959): below the threshold
pKd (NHERF3_1, Q5T2W1): below the threshold
pKd (MAGI2_2, Q86UL8): 4.51
pKd (MPDZ_10, O75970): below the threshold
pKd (DLG2_3, Q15700): 3.8
pKd (GRIP2_5, Q9C0E4): below the threshold
pKd (LNX2_3, Q8N448): below the threshold
pKd (GRIP2_3, Q9C0E4): below the threshold
pKd (ARHGEF11, O15085): 4.45
pKd (RADIL, Q96JH8): 4.11
pKd (Inadl_4, Q8NI35): below the threshold
pKd (NHERF4_2, Q86UT5): below the threshold
pKd (SNTA1, Q13424): 3.79
pKd (PTPN3, P26045): 4.01
pKd (DFNB31_3, Q9P202): below the threshold

LRYARPADAL [PPP1R3G, B7ZBB8]
pKd (MAGI2_5, Q86UL8): below the threshold
pKd (MAGI2_6, Q86UL8): below the threshold
pKd (GRIP1_5, Q9Y3R0): below the threshold
pKd (HTRA2, O43464): below the threshold
pKd (CARD11, Q9BXL7): below the threshold
pKd (MAGI3_2, Q5TCQ9): below the threshold
pKd (FRMPD2_2, Q68DX3): below the threshold
pKd (SCRIB_3, Q14160): below the threshold
pKd (GRIP1_3, Q9Y3R0): below the threshold
pKd (GORASP1, Q9BQQ3): below the threshold
pKd (DLG1_2, Q12959): 3.53
pKd (Inadl_1, Q8NI35): below the threshold
pKd (DLG1_3, Q12959): below the threshold
pKd (NHERF3_1, Q5T2W1): 3.9
pKd (MAGI2_2, Q86UL8): below the threshold
pKd (MPDZ_10, O75970): below the threshold
pKd (DLG2_3, Q15700): below the threshold
pKd (GRIP2_5, Q9C0E4): below the threshold
pKd (LNX2_3, Q8N448): below the threshold
pKd (GRIP2_3, Q9C0E4): below the threshold
pKd (ARHGEF11, O15085): below the threshold
pKd (RADIL, Q96JH8): below the threshold
pKd (Inadl_4, Q8NI35): below the threshold
pKd (NHERF4_2, Q86UT5): below the threshold
pKd (SNTA1, Q13424): below the threshold
pKd (PTPN3, P26045): below the threshold
pKd (DFNB31_3, Q9P202): below the threshold

REVVMRVTTV [MARCHF9, Q86YJ5]
pKd (MAGI2_5, Q86UL8): 4.12
pKd (MAGI2_6, Q86UL8): 4.4
pKd (GRIP1_5, Q9Y3R0): below the threshold
pKd (HTRA2, O43464): 3.56
pKd (CARD11, Q9BXL7): below the threshold
pKd (MAGI3_2, Q5TCQ9): 5.16
pKd (FRMPD2_2, Q68DX3): 4.11
pKd (SCRIB_3, Q14160): 4.43
pKd (GRIP1_3, Q9Y3R0): below the threshold
pKd (GORASP1, Q9BQQ3): 4.31
pKd (DLG1_2, Q12959): 5.44
pKd (Inadl_1, Q8NI35): below the threshold
pKd (DLG1_3, Q12959): 5.01
pKd (NHERF3_1, Q5T2W1): below the threshold
pKd (MAGI2_2, Q86UL8): 5.14
pKd (MPDZ_10, O75970): 4.4
pKd (DLG2_3, Q15700): 4.92
pKd (GRIP2_5, Q9C0E4): below the threshold
pKd (LNX2_3, Q8N448): below the threshold
pKd (GRIP2_3, Q9C0E4): below the threshold
pKd (ARHGEF11, O15085): 4.65
pKd (RADIL, Q96JH8): 4.68
pKd (Inadl_4, Q8NI35): below the threshold
pKd (NHERF4_2, Q86UT5): 3.49
pKd (SNTA1, Q13424): 5.27
pKd (PTPN3, P26045): 4.91
pKd (DFNB31_3, Q9P202): 4.31
